T1: human TNFR14 (human, UniProt Q92956 39-283)
T1 construct: whole, on cells
T1 sequence (looked up): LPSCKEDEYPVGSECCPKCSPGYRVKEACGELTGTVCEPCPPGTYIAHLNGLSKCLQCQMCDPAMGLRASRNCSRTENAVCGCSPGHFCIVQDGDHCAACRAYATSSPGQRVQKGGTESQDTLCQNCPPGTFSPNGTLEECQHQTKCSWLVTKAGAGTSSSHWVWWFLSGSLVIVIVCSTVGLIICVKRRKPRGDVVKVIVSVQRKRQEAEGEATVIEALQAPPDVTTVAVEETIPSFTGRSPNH

T2: human TNFR2 (human, UniProt P20333 23-461)
T2 construct: whole, on cells
T2 sequence (looked up): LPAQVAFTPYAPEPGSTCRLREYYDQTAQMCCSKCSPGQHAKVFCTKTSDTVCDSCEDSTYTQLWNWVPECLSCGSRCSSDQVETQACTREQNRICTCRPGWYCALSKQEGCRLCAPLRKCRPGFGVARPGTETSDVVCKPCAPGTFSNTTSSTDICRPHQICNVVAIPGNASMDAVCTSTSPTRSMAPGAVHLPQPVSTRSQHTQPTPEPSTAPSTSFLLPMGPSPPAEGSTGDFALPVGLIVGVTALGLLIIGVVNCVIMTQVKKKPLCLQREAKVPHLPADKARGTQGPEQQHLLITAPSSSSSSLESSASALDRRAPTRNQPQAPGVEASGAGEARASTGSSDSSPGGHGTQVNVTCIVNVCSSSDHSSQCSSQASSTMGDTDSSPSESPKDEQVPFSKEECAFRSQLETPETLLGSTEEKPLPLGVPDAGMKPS

T3: mouse CD40 on cells (mouse, UniProt P27512 20-289)
T3 construct: whole, on cells; also called mouse CD40 on HEK293 cells; CD40 on mouse B cells
T3 sequence (looked up): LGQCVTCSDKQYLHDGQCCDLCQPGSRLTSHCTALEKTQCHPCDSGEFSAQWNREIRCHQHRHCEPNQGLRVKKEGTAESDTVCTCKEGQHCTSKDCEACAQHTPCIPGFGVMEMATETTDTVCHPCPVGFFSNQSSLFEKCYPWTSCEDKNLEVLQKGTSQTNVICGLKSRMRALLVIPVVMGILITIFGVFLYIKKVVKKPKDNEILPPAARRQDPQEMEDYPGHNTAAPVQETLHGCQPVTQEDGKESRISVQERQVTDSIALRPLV

B1: 35F11 (antibody, IgG4, V domains shown)
VH: QVQLVESGGGVVQPGRSLRLSCAASGFTLSSYGMHWVRQAPGKGLEWVAVIWYDGSNKYYADSVKGRVTISRDNSKNTLYLQMNSLRAEDTAVYYCTRDGRNYVYFDNWGQGTLVTVSS
VL: QSALTQPRSVSGSPGQSVTISCTGTSSDVGGYIFVSWYQQHPGKAPKLMIYDVSKRPSGVPDRFSGSKSVNTASLTISGLQAEDETDYYCCSYAGNYTYVFGTGTKVTVLG
notes: also called 4868-1
B2: 4G7 (antibody, IgG4, V domains shown)
VH: QVQLVQSGAEVKKPGASVKVSCKASGYTFAGYYMHWVRQAPGQGLEWMGWINPDSGGTNFAQQFQGRVTMTRDTSISTAYMEVSRLRSDDTAVFYCAREKITMTGIYFDYWGQGTLVTVSS
VL: DIQMTQSPSSLSASVGDILTITCRASQNITTYLNWYQQKPGKAPNLLISAASRLRSGVPSRFSGSGSGTDFTLTISSLQPVDFTTFYCQQTFTTPWTFGQGTKVEIKR
notes: also called 4869-1
B3: 37A6 (antibody, IgG4, V domains shown)
VH: QVQLVESGGGLVKPGGSLRLSCAASEFTFSDYYMSWIRQAPGKGLEWVSYISRSGDTIYYADSVKGRFTISRDNAKNSLYLQMNGLRAEDTAVYYCARDLAAGATGGLDCWGQGTLVTVSS
VL: SYELTQPPSVSVSPGQTASITCSGERLGNKYICWYQQKPGQSPVLVIYQDFKRPSGIPERFSGSNSGITATLTISGTQAMDEADYYCQAWDSRTVVFGGGTKLTVLG
notes: also called 4865-1
B4: 30A12 (antibody, IgG4, V domains shown)
VH: EVQLLESGGGLVQPGGSLRLSCAASGFTFSRNAMSWVRQAPGKGLEWVSATGGSGISTYYADSVKGRFTISRDNSKNTLYLQMNSLRAEDTAVYYCARGYSNSWWYFDYWGQGTLVTVSS
VL: QSALTQPASVSGSPGQSITISCTGTSSDVGNYNLVSWYQQHPGKAPKLMIFEVNQRPSGVSNRFSGSKSGTTASLTISGLQAADEADYFCCSYTTSSTYVIFGGGTKLTVLG
notes: also called 4878-1
B5: 39C2 (antibody, IgG4, V domains shown)
VH: QVQLVQSGTEVKKPGASVKVSCKASGYTFPGYYMHWVRQAPGQGLEWMGWINPDSGGTKYTQKFQGRVTLTRDASVSTAYIDLNRLRSDDTAVYYCARERCRTTNCYLDYWGQGSLVTVSS
VL: QSALTQPASVSGSPGQSITISCTGTSSDVGNYNLVSWYQQHPGKAPKLMIYEVNRRPSGVSNRFSGSKSGNTASLTISGLQAEDEAEYYCCSYAGRDTFVVFGGGTKLTVLG
notes: also called 4887-1
B6: 33H6 (antibody, IgG4, V domains shown)
VH: QVQLVQSGAEVKKPGASVKVSCKASGYTFPGYYMYWLRQAPGQGLEWMGWINPDSGDTNYAQKFQGRVTMTRDTSISTAFMELSRLRSDDTAVYYCAREKPRYFDSFYYYLMDVWGQGTTVTVSS
VL: DIQMTQSPSSLSASVGDRVTITCRAGQNISRHLNWYQQNPGKAPKVLIHPASSLPSGVPSRFSGSGSGTDFSLTISSLQPEDFGTYFCQQSYSTPPTFGGGTKVELKR
notes: also called 4883-1
B7: 36F3 (antibody, IgG4, V domains shown)
VH: QVQLQQSGPGLVKPSQTLSLTCAISGDSVSSSRTAWNWIRQSPSRGLEWLGRTYYRSKWYHDYSVSVKSRITIDPDTSKNQFSLQLNSVTPEDTAVYYCARGAAPFDYWGQGTLVTVSS
VL: EIVLTQSPGTLSLSPGERATLSCRASQSVSSNYLAWYQQKPGQAPRALIYAASNRAAGISDRFSGSGSGTDFTLTISRLEPEDFAVYFCQQYGSSPLTFGGGTKVEIKR
notes: also called 4891-1
B8: 29H10 (antibody, V domains shown)
VH: QVQLVQSGAEVTKPGASVKVSCKASGYTFAGYYMHWVRQAPGQGLEWMGWINPHSGGTNYAQKFQDRVTMTRDTSINTAYMELSRLRSDDTAVYYCARERISMVRGVGHNWFAPWGQGTLVTVSS
VL: DIQMTQSPSSLSASVGDRVTITCRASQDISNNLAWFQQKPGKPPKSLMYAASSLHSGVPSTFSGSGSGTDFTFTISSLQPEDFATYYCQQYNSYPLTFGGGTKVEIRR
notes: also called 4877-1

Biological target: T1, human TNFR14
Assay: flow cytometry, HEK293 transfectants
Method in brief: (§1)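 Anti-human CD40 antibodies were tested by flow cytometry for binding to HEK293 cells transiently transfected with human TNFR1, TNFR2, TNFR10, TNFR14, or cynomolgus or mouse CD40. Affinity for human and cynomolgus CD40 was measured by Octet, giving Kon, Kdis and KD.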

Row | binding result | Binder
1 | no binding | B1
2 | no binding | B2
3 | no binding | B3
4 | no binding | B4
5 | no binding | B5
6 | no binding | B6
7 | no binding | B7
8 | no binding | B8

Biological target: T2, human TNFR2
Assay: flow cytometry, HEK293 transfectants
Method in brief: as §1

Row | binding result | Binder
9 | no binding | B1
10 | no binding | B2
11 | no binding | B3
12 | no binding | B4
13 | no binding | B5
14 | no binding | B6
15 | no binding | B7
16 | no binding | B8

Biological target: T4, human CD40 on cells (human, UniProt P25942 21-277)
T4 sequence (P25942 21-277 limits assumed): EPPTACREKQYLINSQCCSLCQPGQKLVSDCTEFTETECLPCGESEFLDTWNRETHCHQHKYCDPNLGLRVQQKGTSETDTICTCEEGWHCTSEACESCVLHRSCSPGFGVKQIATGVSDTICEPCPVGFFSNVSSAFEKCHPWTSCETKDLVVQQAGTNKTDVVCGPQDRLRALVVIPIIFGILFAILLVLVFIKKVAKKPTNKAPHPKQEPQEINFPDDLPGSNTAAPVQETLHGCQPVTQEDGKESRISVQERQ
Assay: cell-based or functional assay

Row | human B cell proliferation, no crosslinking, % Max Activity [%] | human B cell proliferation, no crosslinking, EC50 [nM] | human B cell proliferation, with protein G crosslinking, % Max Activity [%] | human B cell proliferation, with protein G crosslinking, EC50 [nM] | Binder
17 | 4.4 | > 16.7 | 120 | 0.3 | B1
18 | 6 | > 16.7 | 70.5 | 0.5 | B2
19 | 0.4 | > 16.7 | 80.9 | 0.3 | B3
20 | 8.6 | > 16.7 | 89.1 | 0.4 | B4
21 | 6.1 | > 16.7 | 76.6 | 0.21 | B5
22 | 6.5 | > 16.7 | 73.4 | 0.26 | B6
23 | 8.2 | > 16.7 | 81.9 | 0.3 | B7
24 | 4.4 | > 16.7 | 65.9 | 0.37 | B8

Biological target: T4, human CD40 on cells
Assay: flow cytometry, labelled CD40L on CD40-293T cells, antibody at 10 ug/ml
Procedure: (§2) Percent ligand binding inhibition was calculated as [(CD40L binding gMFI in the absence of anti-CD40)−(CD40L binding gMFI in the presence of anti-CD40)]/(CD40L binding gMFI in the absence of anti-CD40). gMFI: geometric mean fluorescent intensity. All anti-CD40 antibodies show minimal effects on the ability of CD40L to bind to the CD40 receptor (Table 7).

Row | Ligand Binding Inhibition (%) | Binder
25 | 51 | B1
26 | 14 | B2
27 | 6 | B3
28 | -8 | B4
29 | 3 | B5
30 | 11 | B6
31 | 14 | B7
32 | 1 | B8

Biological target: T3, mouse CD40 on cells
Assay: flow cytometry, HEK293 transfectants

Row | binding result | Binder
33 | no binding | B1
34 | no binding | B2
35 | no binding | B3
36 | no binding | B4
37 | no binding | B5
38 | no binding | B6
39 | no binding | B7
40 | no binding | B8

Biological target: T4, human CD40 on cells
Assay: flow cytometry, labelled CD40L on CD40-293T cells, antibody at 2.5 ug/ml
Procedure: as §2

Row | Ligand Binding Inhibition (%) | Binder
41 | -15 | B1
42 | 21 | B2
43 | -19 | B3
44 | -16 | B4
45 | 7 | B5
46 | -8 | B6
47 | 1 | B7
48 | -11 | B8

Biological target: T4, human CD40 on cells
Assay: flow cytometry, labelled CD40L on CD40-293T cells, antibody at 5 ug/ml
Procedure: as §2

Row | Ligand Binding Inhibition (%) | Binder
49 | -5 | B1
50 | 24 | B2
51 | 2 | B3
52 | -15 | B4
53 | -6 | B5
54 | 4 | B6
55 | 10 | B7
56 | -8 | B8

Biological target: T4, human CD40 on cells
Assay: flow cytometry, labelled CD40L on CD40-293T cells, antibody at 20 ug/ml
Procedure: as §2

Row | Ligand Binding Inhibition (%) | Binder
57 | 8 | B1
58 | 3 | B2
59 | 12 | B3
60 | -3 | B4
61 | 2 | B5
62 | 7 | B6
63 | 1 | B7
64 | -7 | B8

From patent US20260109776A1 (Amgen, published 2026)
